Tests used:
[1] = target: Fc-Fusion Protein (human soluble TNFα receptor linked to the Fc component of human immunoglobulin G1) (human) [IgG part: P01857]; test: frontal analysis with CHO supernatant feed, Z4 medium of low ligand density, residence time 6 min
[2] = target: Fc-Fusion Protein (human soluble TNFα receptor linked to the Fc component of human immunoglobulin G1) (human) [IgG part: P01857]; test: frontal analysis with CHO supernatant feed, Z4 medium of low ligand density, residence time 2.4 min
[3] = target: Fc-Fusion Protein (human soluble TNFα receptor linked to the Fc component of human immunoglobulin G1) (human) [IgG part: P01857]; test: frontal analysis with CHO supernatant feed, fractions analysed on HiTrap MabSelect SuRe, residence time 6 min
[4] = target: Fc-Fusion Protein (human soluble TNFα receptor linked to the Fc component of human immunoglobulin G1) (human) [IgG part: P01857]; test: frontal analysis with CHO supernatant feed, fractions analysed on HiTrap MabSelect SuRe, residence time 2.4 min

**Q.** Which results are given for “Z4, tetramer of alkaline stabilized protein A (SuRe ligand domain / Z domain), MabSelect SuRe (designed binder)”?
**A.** DBC10% (dynamic binding capacity at 10% breakthrough) [1]: 9 mg/mL; DBC10% (dynamic binding capacity at 10% breakthrough) [2]: 5 mg/mL; DBC10% (dynamic binding capacity at 10% breakthrough) [3]: 10 mg/mL; DBC10% (dynamic binding capacity at 10% breakthrough) [4]: 6 mg/mL

— patent publication US20120149875A1
